# Experimental data as given in paper PMC7352597.
# T1: RL2 (recombinant Lactaptin 2), the recombinant fragment of human κ-Casein (human), P07498
# T1 chain: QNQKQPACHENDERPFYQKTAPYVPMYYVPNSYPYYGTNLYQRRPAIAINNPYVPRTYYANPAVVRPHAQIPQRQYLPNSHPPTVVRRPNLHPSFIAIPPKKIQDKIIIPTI
# B1: RL2 (recombinant Lactaptin 2), the recombinant fragment of human κ-Casein, P07498 23-134 (domain or fragment)
# chain: T1 chain
# Key:
# [1] = target: T1, RL2 (recombinant Lactaptin 2), the …; assay: cellular fractionation, SDS-PAGE and Western Blot; MDA-MB-231 cells stimulated with 100 µg/mL RL2; fractions for cytoplasm, nucleus and mitochondria; RL2 monomer and dimer bands detected by Western Blot; settings: remark: other sources report otherwise
# [2] = target: T1, RL2 (recombinant Lactaptin 2), the …; assay: SDS-PAGE and Western Blot of cell lysates; MDA-MB-231 cells treated with 200 µg/mL RL2 for indicated times, extracellular RL2 washed off; RL2 monomer and dimer bands detected in lysates with anti-κ-Casein antibody; SDS-PAGE under reducing conditions; settings: remark: other sources report otherwise
binder,measurement,setting,value
B1,stoichiometry N,[1],2
same,stoichiometry N,[2],2
